Blank lines part the entries; values can stand above or below the binder they belong to.
Experiments:
Assay in all cases: BLI Octet 384RED (Example 8), Sortilin construct in solution
[1] = target: T1, Sortilin SORTECDBAP_hB06-10 (human/tetraodon chimera)
T1 construct: Shuffle construct
T1 chain: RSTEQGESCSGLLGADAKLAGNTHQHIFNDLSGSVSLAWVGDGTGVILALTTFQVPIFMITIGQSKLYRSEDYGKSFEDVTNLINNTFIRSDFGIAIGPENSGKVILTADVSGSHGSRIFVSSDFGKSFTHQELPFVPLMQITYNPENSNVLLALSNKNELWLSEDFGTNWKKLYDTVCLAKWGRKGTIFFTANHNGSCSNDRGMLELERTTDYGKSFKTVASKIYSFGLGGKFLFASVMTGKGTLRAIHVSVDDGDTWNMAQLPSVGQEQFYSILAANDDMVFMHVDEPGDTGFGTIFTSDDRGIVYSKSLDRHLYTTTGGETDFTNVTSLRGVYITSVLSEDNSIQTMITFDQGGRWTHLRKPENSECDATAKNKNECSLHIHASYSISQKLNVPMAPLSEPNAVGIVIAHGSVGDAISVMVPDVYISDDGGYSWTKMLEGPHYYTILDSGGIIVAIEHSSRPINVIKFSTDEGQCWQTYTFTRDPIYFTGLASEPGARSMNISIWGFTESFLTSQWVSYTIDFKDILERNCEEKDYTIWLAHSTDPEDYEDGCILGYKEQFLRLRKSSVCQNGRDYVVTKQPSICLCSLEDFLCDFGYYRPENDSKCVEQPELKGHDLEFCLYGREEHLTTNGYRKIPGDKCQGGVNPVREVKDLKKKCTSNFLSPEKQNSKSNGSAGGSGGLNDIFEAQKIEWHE
Procedure: (§1) Binding kinetics of anti-Sortilin HuMab antibodies to Sortilin were determined using Octet 384RED (Fortebio, Menlo Park, USA). HuMab solutions of 2 μg/ml were made by dilution in sample diluent (ForteBio, art. No. 18-5028). Prot A sensors (ForteBio, art. no. 18-0004) were prewetted with kinetics buffer (1:10 sample diluent in PBS) for at least 600 seconds. Subsequently sensors were immobilized with HuMab solution for 600 seconds. A baseline response was obtained by dipping in kinetics buffer for 120 seconds. Association of SORTECD constructs was performed during a 1000 seconds incubation. This was followed by dissociation in kinetics buffer for 100 seconds. After dissociation, sensors were regenerated (10 mM Glycine pH 1.0) and neutralized (kinetics buffer) 3 times for 5 seconds. […] A molecular weight of 76.8 kDA was used for SORTECDHis. Data was fitted with ForteBio Analysis 6.4 software, using a global full fit.

[2] = target: T2, Sortilin SORTECDBAP_hB45678 (human/tetraodon chimera)
T2 construct: Shuffle construct
T2 chain: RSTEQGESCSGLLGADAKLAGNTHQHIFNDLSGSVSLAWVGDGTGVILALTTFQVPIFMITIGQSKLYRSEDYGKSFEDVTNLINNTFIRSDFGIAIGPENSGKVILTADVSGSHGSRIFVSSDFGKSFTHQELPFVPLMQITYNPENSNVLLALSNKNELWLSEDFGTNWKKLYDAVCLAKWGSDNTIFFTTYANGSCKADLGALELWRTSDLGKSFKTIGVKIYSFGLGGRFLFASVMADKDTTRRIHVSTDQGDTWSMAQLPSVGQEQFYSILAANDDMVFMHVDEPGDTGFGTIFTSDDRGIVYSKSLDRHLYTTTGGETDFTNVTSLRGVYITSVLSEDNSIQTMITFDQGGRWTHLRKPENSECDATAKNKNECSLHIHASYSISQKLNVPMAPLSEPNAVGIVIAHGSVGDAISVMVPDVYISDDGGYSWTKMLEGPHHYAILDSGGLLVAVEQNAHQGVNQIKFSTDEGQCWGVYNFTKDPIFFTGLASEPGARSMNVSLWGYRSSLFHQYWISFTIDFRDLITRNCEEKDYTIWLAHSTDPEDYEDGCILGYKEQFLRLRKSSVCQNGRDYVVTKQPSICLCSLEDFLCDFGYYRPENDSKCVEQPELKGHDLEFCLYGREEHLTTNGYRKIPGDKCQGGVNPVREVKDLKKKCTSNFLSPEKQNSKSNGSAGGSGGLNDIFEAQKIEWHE
Procedure: as §1

[3] = target: T3, Sortilin SORTECDBAP_hB12390 (human/tetraodon chimera)
T3 construct: Shuffle construct
T3 chain: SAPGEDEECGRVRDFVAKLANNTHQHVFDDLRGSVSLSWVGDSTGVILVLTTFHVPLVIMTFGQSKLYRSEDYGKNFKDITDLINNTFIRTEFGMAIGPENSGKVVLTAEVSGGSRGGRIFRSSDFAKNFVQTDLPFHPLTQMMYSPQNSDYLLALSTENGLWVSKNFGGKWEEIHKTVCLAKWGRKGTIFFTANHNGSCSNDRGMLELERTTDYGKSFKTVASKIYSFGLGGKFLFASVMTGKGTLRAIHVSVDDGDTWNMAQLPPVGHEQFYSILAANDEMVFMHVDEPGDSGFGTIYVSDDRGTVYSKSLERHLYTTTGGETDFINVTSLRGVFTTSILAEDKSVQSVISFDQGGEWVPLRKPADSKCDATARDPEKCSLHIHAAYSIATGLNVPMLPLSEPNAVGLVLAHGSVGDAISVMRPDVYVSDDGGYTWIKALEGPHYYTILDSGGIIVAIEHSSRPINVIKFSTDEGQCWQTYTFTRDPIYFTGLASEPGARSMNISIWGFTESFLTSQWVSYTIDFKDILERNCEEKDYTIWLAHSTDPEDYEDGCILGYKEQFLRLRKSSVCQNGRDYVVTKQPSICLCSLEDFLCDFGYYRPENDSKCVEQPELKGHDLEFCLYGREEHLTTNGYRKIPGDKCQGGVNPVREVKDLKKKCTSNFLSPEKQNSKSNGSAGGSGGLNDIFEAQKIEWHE
Procedure: as §1

EC50 [1]: 9.6 ng/mL
binding result [2]: no binding (tested: 10 µg/ml construct)
EC50 [3]: 1.1 ng/mL
B1: Antibody 1F2 (antibody, V domains shown)
VH: EVQLVESGGDLVKPGGSLKLSCAASGFTFSSYGMSWVRQTPDKRLEWVAIISSGGSYTHYPDSVKGRFTISRDNAKNTLYLQMSSLKSEDTAMYYCARLCGPLCSGYWGQGTSVTVSS
VL: QAVVTQESALTTSPGETVTLTCRSSTGAVTTSNYANWVQEKPDHLFTGLIGGTNNRAPGVPARFSGSLIGDKAALTITGAQTEDEAIYFCALWYSNHFWVFGGGTKLTVLG
notes: Mouse anti-human Sortilin monoclonal antibody from hybridoma (BALB/c), purified on protein G; Assigned to the D Region; also called 1F2F4; Ab 1F2

EC50 [1]: 0.72 ng/mL
binding result [2]: no binding (tested: 10 µg/ml construct)
EC50 [3]: 0.59 ng/mL
B2: Antibody 5E1 (antibody, V domains shown)
VH: EVHLVESGGDLVNPGGSLKLSCEASGFIFSIYGMSWVRQTPDKRLEWVAMISSGGIYTQYPDSVKGRFTISRDNAKNTLYLQMSGLKSEDTGTYHCTRHDDSWFAYWGQGTLVTVSA
VL: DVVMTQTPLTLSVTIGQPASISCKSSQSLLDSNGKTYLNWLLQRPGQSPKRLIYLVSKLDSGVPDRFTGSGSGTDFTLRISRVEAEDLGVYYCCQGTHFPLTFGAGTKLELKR
notes: Mouse anti-human Sortilin monoclonal antibody from hybridoma (BALB/c), purified on protein G; Assigned to the D Region; also called 5E1F6; Ab 5E1
